These results are taken from publication PMC8548916.

The experiment has as its target Cnm1 (contact nucleus mitochondria 1) tagged with GFP on its C terminus (S. cerevisiae). The experiment in a line: co-IP; GFP-Trap beads precipitate Cnm1-GFP from cleared yeast lysate (1% digitonin, 150 mM NaCl, 50 mM Tris-HCl pH 8.0, 5% glycerol, 1 mM MgCl2), 1 h at 4°C; Western blot with antibodies against GFP and mCherry; enrichment by densitometry.

Take “Tom70 tagged with mCherry on its C terminus (from UniProt P07213 1-617) (natural protein)”: the fold enrichment in the immunoprecipitate relative to Tom20 came out at 2 fold.
